Consider 19 molecules from patent publication US7329737 (DYAX, dated 2008).

The target of assay [1] is T1, hK1 (human tissue kallikrein 1), recombinant (human, UniProt P06870 25-262).
T1 construct: Expressed in P. pastoris from KLK1 cDNA and purified; enzymatically active; also called KLK1; Recombinant (Pichia) Kallikrein
Kind of assay: SPR.

Assay [2] addresses T1, hK1 (human tissue kallikrein 1), …. Kind of assay: cell-based or functional assay.

B1: M0136-E12 (Fab, V domains shown)
VH: EVQLLESGGGLVQPGGSLRLSCAASGFTFSNYSMQWVRQAPGKGLEWVSSIGPSGGRTWYADSVKGRFTISRDNSKNTLYLQMNSLRAEDTAVYYCARVGVWYGMDVWGQGTTVTVSS
VL: DIQMTQSPSSLSASVGDRVTITCRASHVINIDLGWYQQKPGKAPKLLIYGASHLQRGVPSRFSGSGSGTVFTLTISGLQPEDFATYYCLQDSFYPRTFGQGTRLEIKR
B1: in assay [1], the dissociation constant (Kd) is 2.23 nM, the dissociation rate constant (koff) turned out to be 0.00107 s⁻¹ and the kon was 481000 M⁻¹ s⁻¹.

B2: M0131-F09 (Fab, V domains shown)
VH: EVQLLESGGGLVQPGGSLRLSCAASGFTFSHYVMQWVRQAPGKGLEWVSGIGPSGGSTTYADSVKGRFTISRDNSKNTLYLQMNSLRAEDTAVYYCARVGVWYGMDVWGQGTTVTVSS
VL: DIQMTQSPATLSLSPGERATLSCRASQSVSSYLAWYQQKPGQAPRLLIYDASNRATGIPARFSGSGSGTDFTLTISSLEPEDFAVYYCQQRSNWLWTFGQGTKVEIKR
With B2, in assay [1], the Kd is 2.36 nM, the off-rate (koff) was 0.000734 s⁻¹ and the on-rate constant (kon) worked out at 311000 M⁻¹ s⁻¹.

B3: M0136-E10 (Fab, V domains shown)
VH: EVQLLESGGGLVQPGGSLRLSCAASGFTFSPYNMAWVRQAPGKGLEWVSSIWPSGGRTRYADSVKGRFTISRDNSKNTLYLQMNSLRAEDTAVYYCAKGVRSSGLLERGRVYDAFDIWGQGTMVTVSS
VL: DIQMTQSPGTLSLSPGERATLSCRASQSVTTFLAWYQRKPGQAPRLLIYGASSRAADIPDRFSGSGSGTDFTLTISRLEPEDLAVYYCQQYRFSPPTFGPGTTVDIRR
Regarding B3, in assay [1], the Kd stood at 9.66 nM, the koff came to 0.00106 s⁻¹ and the on-rate (kon) worked out at 110000 M⁻¹ s⁻¹. Also, the “IC50 (nM), inhibition of hK1 enzyme activity” value in assay [2] stood at 22 nM.

B4: M0134-B03 (Fab, V domains shown)
VH: EVQLLESGGGLVQPGGSLRLSCAASGFTFSHYSMFWVRQAPGKGLEWVSSIYPSGGQTDYADSVKGRFTISRDNSKNTLYLQMNSLRAEDTAVYYCARRGLLWSFDSWGQGTLVTVSS
VL: AQSALTQPPSASGSPGQSVTISCTGTSSDVGAYNYVSWYQQHPGKAPKLIIYEVNKRPSGVPDRFSASKSGNTASLTVSGLQAEDEADYYCNSYAGSNSLIFGGGTKLTVLG
Take B4: in assay [1], the dissociation constant (Kd) turned out to be 2.41 nM, the dissociation rate constant (koff) turned out to be 0.00096 s⁻¹ and the on-rate (kon) turned out to be 399000 M⁻¹ s⁻¹.

B5: M0111-D11 (Fab, V domains shown)
VH: EVQLLESGGGLVQPGGSLRLSCAASGFTFSWYAMMWVRQAPGKGLEWVSSIWPSGGHTKYADSVKGRFTISRDNSKNTLYLQMNSLRAEDTAVYYCATDQGYFWGQGTLVTVSS
VL: DIQMTQSPATLSLSPGDRATLSCRASQRVSSTFLAWYQQRPGQAPRLVIFGTSSRATGIPDRFSGSGSGTDFTLTISRLEPEDFAVYYCHQYGSSPRTFGQGTKVEIKR
In the case of B5, the “IC50 (nM), inhibition of hK1 enzyme activity” value in assay [2] came out at 160 nM.

B6: M0135-H01 (Fab, V domains shown)
VH: EVQLLESGGGLVQPGGSLRLSCAASGFTFSAYLMAWVRQAPGKGLEWVSSIRPSGGETRYADSVKGRFTISRDNSKNTLYLQMNSLRAEDTAVYYCTRDQKGYPDSSSFRRYYYYYGMDVWGQGTTVTVSS
VL: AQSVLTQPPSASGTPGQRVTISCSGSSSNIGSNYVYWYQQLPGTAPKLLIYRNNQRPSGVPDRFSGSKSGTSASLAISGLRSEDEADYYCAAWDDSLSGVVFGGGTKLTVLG
For the molecule B6, in assay [1], the Kd was determined as 2.03 nM, the off-rate (koff) was determined as 0.000396 s⁻¹ and the kon turned out to be 195000 M⁻¹ s⁻¹.

B7: M0108-D11 (Fab, V domains shown)
VH: EVQLLESGGGLVQPGGSLRLSCAASGFTFSWYVMTWVRQAPGKGLEWVSVIYPSGGATKYADSVKGRFTISRDNSKNTLYLQMNSLRAEDTAVYYCARRGAGGMDVWGQGTTVTVSS
VL: AQSVLTQPASVSGSPGQSITISCTGTNTDVGGYNLVSWYQQHPGKAPKLIIYEVSNRPSGVSNRFSGSKSGNTASLTISGLQAEDEVDYYCGSYTSSSTHVFGSGTKVTVLG
On to B7, for which, in assay [1], the dissociation constant (Kd) is 2.09 nM, the koff was 0.00069 s⁻¹ and the kon turned out to be 330000 M⁻¹ s⁻¹.

B8: M0138-C09 (Fab, V domains shown)
VH: EVQLLESGGGLVQPGGSLRLSCAASGFTFSPYRMSWVRQAPGKGLEWVSVISPSGGITEYADSVKGRFTISRDNSKNTLYLQMNSLRAEDTAVYYCAKHERGSGYYVTPPAGAFDIWGQGTMVTVSS
VL: AQSELTQPASVAGSPGQSITISCTGTSSDVGLYNFVSWYQQHPGKAPKLMIYDVSRRPSGVSNRFSASKSGTRASLTVSGLQAEDEADYYCSSYAGSNNYVFGTGTKVTVLG
With B8, in assay [1], the Kd amounted to 8.78 nM, the koff worked out at 0.00153 s⁻¹ and the kon was 175000 M⁻¹ s⁻¹. The “IC50 (nM), inhibition of hK1 hydrolysis of Pro-Phe-Arg-AMC” value in assay [2] amounted to 10.9 nM.

B9: M0133-E02 (Fab, V domains shown)
VH: EVQLLESGGGLVQPGGSLRLSCAASGFTFSWYTMTWVRQAPGKGLEWVSSIYPSGGHTSYADSVKGRFTISRDNSKNTLYLQMNSLRAEDTAVYYCAKDTRVGPWLVRAPLDYWGQGTLVTVSS
VL: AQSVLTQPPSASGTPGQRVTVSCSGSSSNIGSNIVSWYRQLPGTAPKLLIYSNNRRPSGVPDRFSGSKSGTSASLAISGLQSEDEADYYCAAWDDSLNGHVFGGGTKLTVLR
For the molecule B9, in assay [1], the Kd was determined as 6.42 nM, the off-rate constant (koff) came to 0.00146 s⁻¹ and the on-rate constant (kon) was determined as 227000 M⁻¹ s⁻¹. For the same molecule, the “IC50 (nM), inhibition of hK1 hydrolysis of Pro-Phe-Arg-AMC” value in assay [2] worked out at 2.4 nM.

B10: M0138-G11 (Fab, V domains shown)
VH: EVQLLESGGGLVQPGGSLRLSCAASGFTFSWYTMTWVRQAPGKGLEWVSSIYPSGGHTSYADSVKGRFTISRDNSKNTFYLQMNSLRAEDTAVYYCAKDTRVGPWLVRAPLDYWGQGTLVTVSS
VL: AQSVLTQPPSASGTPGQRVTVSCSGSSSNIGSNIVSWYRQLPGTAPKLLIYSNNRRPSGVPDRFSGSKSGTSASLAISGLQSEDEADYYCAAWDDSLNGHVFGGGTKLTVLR
Regarding B10, in assay [1], the Kd is 6.19 nM, the koff came out at 0.00161 s⁻¹ and the kon is 260000 M⁻¹ s⁻¹. Moreover, the “IC50 (nM), inhibition of hK1 enzyme activity” value in assay [2] came to 28 nM.

B11: M0106-G12 (Fab, V domains shown)
VH: EVQLLESGGGLVQPGGSLRLSCAASGFTFSWYRMHWVRQAPGKGLEWVSSIWPSGGKTHYADSVKGRFTISRDNSKNTLYLQMNSLRAEDTAVYYCARALQYGSGSYFYAPKSYYYYGMDVWGQGTTVTVSS
VL: DIQMTQSPSFVSASIGDRVTITCRASQSIGTLLNWYQHKPGTVPSLLIYGNLRGGVPARFSGSGSGTDFTLTISSLQPEDFATYYCQHDTFGGGTKVDIKR
As to B11, the “IC50 (nM), inhibition of hK1 hydrolysis of Pro-Phe-Arg-AMC” value in assay [2] came to 5.1 nM.

B12: M0110-F08 (Fab, V domains shown)
VH: EVQLLESGGGLVQPGGSLRLSCAASGFTFSNYVMYWVRQAPGKGLEWVSGIGPSGGFTTYADSVKGRFTISRDNSKNTLYLQMNSLRAEDTAVYYCTRDRYFGSGYYMAAYYYYGMDVWGQGTTVTVSS
VL: DIQMTQSPGTLSLSPGERATLSCRASQSVVSNFLAWYQQKPGQAPRLLIYGASSRATGIPDRFSGSGSGTDFILTISRLEPEDFAVYYCQQYGSSPYSFGQGTKLEIKR
B12: in assay [2], the “IC50 (nM), inhibition of hK1 enzyme activity” value was found to be 44 nM.

B13: M0098-G05 (Fab, V domains shown)
VH: EVQLLESGGGLVQPGGSLRLSCAASGFTFSKYKMGWVRQAPGKGLEWVSYIRPSGGMTFYADSVKGRFTISRDNSKNTLYLQMNSLRAEDTAVYYCTREHYQASYSSSAWFRMVPAGAFDIWGQGTMVTVSS
VL: DIQMTQSPSSLSASVGDRVTITCRASQTISRYLNWYQQKPGTAPKLLIYAASSLQSGVPSRFSGDGSGTDFTLTISSLQPEDFGIYFCQQSYSAPRTFGQGTKVEIKR
With B13, in assay [2], the “IC50 (nM), inhibition of hK1 hydrolysis of Pro-Phe-Arg-AMC” value came to 4 nM.

B14: M0139-C02 (Fab, V domains shown)
VH: EVQLLESGGGLVQPGGSLRLSCAASGFTFSYYKMHWVRQAPGKGLEWVSVIYPSGGKTTYADSVKGRFTISRDNSKNTLYLQMNSLRAEDTAVYYCTREHYQASYSSSAWFRMVPAGAFDIWGQGTMVTVSS
VL: DIQMTQSPSSLSASVGDRVTITCRASQGIRRAWYQQKPGKPPKLLINDASSLESGVPSRFSGSGSGTDFTLTISSLQPEDFATYYCQQSYSTPPWTFGQGTKVEIKR
In the case of B14, in assay [2], the “IC50 (nM), inhibition of hK1 hydrolysis of Pro-Phe-Arg-AMC” value amounted to 1 nM.

B15: M0097-F03 (Fab, V domains shown)
VH: EVQLLESGGGLVQPGGSLRLSCAASGFTFSNYLMYWVRQAPGKGLEWVSSIRPSGGNTLYADSVKGRFTISRDNSKNTLYLQMNSLRAEDTAVYYCRRGILTGYYWGYYYYMDVWGKGTTVTVSS
VL: DIQMTQSPATLSVSPGGRATLSCRASQSVRKNVAWYQQKPGQPPRLLIYGASTRATGVPARFSGSGSGTEFTLTISRMQPEDFVVYHCQQYSSWPAFGQGTMVEINR
As to B15, the “IC50 (nM), inhibition of hK1 hydrolysis of Pro-Phe-Arg-AMC” value in assay [2] worked out at 1.1 nM.

B16: M0102-E09 (Fab, V domains shown)
VH: EVQLLESGGGLVQPGGSLRLSCAASGFTFSLYLMEWVRQAPGKGLEWVSSIGSSGGATWYADSVKGRFTISRDNSKNTLYLQMNSLRAEDTAMYYCATDTSRVAGTRLRNYYYYYGMDVWGQGTTVTVSS
VL: DIQMTQSPDSLSLSPGERATLSCRASQSISSSYLAWYQQTPGQAPRLLIYHASSRATGVPARFSGSGSGTDFTLTISSLEPEDFAVYYCQQRNNWPPSFTFGGGTKVETKR
With B16, the “IC50 (nM), inhibition of hK1 hydrolysis of Pro-Phe-Arg-AMC” value in assay [2] amounted to 0.89 nM.

B17: M0138-A03 (Fab, V domains shown)
VH: EVQLLESGGGLVQPGGSLRLSCAASGFTFSFYLMFWVRQAPGKGLEWVSGIYPSGGQTVYADSVKGRFTISRDNSKNTLYLQMNSLRAEDTAVYYCARAIGAGSSFWGQGTLVTVSS
VL: DIQMTQSPSSVSASVGDRVTITCRASQGISSWLAWYQQKPGKAPKLLIYAASSLQSGVPSRFSGSGSGTDFTLTISSLQPEDFATYYCQQANSFPHTFGQGTKLEIKR
B17: in assay [1], the Kd was found to be 1.71 nM, the off-rate (koff) turned out to be 0.000325 s⁻¹ and the on-rate (kon) was 190000 M⁻¹ s⁻¹.

B18: M0138-E02 (Fab, V domains shown)
VH: EVQLLESGGGLVQPGGSLRLSCAASGFTFSHYMMHWVRQAPGKGLEWVSGIGPSGGKTPYADSVKGRFTISRDNSKNTLYLQMNSLRAEDTAVYYCARVGVWYGMDVWGQGTTVTVSS
VL: DIQMTQSPSSVSASVGDRVTITCRASQGISSWLVWYQQKPGKAPKLLIYAASSLQSGVPSRFSGSGSGTDFTLTISSLQPEDFATYYCQQAKTFPLTFGGGTKVEIKR
In the case of B18, in assay [1], the Kd is 2.26 nM, the off-rate constant (koff) was 0.00138 s⁻¹ and the on-rate (kon) is 614000 M⁻¹ s⁻¹.

B19: M0136-D07 (Fab, V domains shown)
VH: EVQLLESGGGLVQPGGSLRLSCAASGFTFSPYKMGWVRQAPGKGLEWVSSIYPSGGVTTYADSVKGRFTISRDNSKNTLYLQMNSLRAEDTAVYYCTKNINLRYDILTGYFDIWGQGTTVTVSS
VL: DIQMTQSPSSVSASVGDRVTITCRASQDIASWLAWYQQKPEKVPKLLIYAASSLQSGVPSRFSGSGSGTDFTLTINSLQPEDFATYYCQQANSFPFTFGPGTKVDFKR
For B19, in assay [1], the Kd was 2.26 nM, the koff came out at 0.000397 s⁻¹ and the on-rate constant (kon) turned out to be 176000 M⁻¹ s⁻¹.
